The values below come from patent US20190225703A1 (INNATE PHARMA, published 2019).

Positions count from the first letter of the chain named.

As a reminder, the EC50 is the midpoint of the concentration-response curve. High values mean a less potent agent, low ones a more potent agent. Broadly, the EC50 (read off the curve) is the concentration needed to bring the measured effect to its halfway point.

Test [1] addresses T1, cynomolgus CD73 expressed at the cell surface (cynomolgus).
T1 construct: whole, on cells; Recombinant cell line expressing cynomolgus CD73; also called cynoCD73
In words: flow cytometry titration on cynomolgus-CD73-expressing cell line. The procedure: (§1) 10⁵ cells resuspended in PBS/0.2% BSA/0.02% NaN3 (named “staining buffer”) are distributed into round bottom 96W-microplates. Dose-range of anti-CD73 antibodies was added to the plates and cells are incubated for 45 min at 4° C. Cells were washed three times in staining buffer by spinning plates at 400 g for 3 min at 4° C. PE-coupled goat anti-mouse or goat anti-human IgG Fc fragment secondary antibodies (Beckman Coulter) diluted in staining buffer were added to the cells and plates are incubated for 30 additional minutes at 4° C. Cells were washed three times as described above and analyzed on an Accury C6 flow cytometer equipped with an HTFC plate reader.
(§2) Median of fluorescence vs. antibodies concentration was plotted on graphs and EC50 is calculated using GraphPad Prism program.

A further test addresses T2, human CD73 mutant 4 (human, UniProt P21589 27-549).
T2 construct: Transfected in HEK-293T cells
T2 chain: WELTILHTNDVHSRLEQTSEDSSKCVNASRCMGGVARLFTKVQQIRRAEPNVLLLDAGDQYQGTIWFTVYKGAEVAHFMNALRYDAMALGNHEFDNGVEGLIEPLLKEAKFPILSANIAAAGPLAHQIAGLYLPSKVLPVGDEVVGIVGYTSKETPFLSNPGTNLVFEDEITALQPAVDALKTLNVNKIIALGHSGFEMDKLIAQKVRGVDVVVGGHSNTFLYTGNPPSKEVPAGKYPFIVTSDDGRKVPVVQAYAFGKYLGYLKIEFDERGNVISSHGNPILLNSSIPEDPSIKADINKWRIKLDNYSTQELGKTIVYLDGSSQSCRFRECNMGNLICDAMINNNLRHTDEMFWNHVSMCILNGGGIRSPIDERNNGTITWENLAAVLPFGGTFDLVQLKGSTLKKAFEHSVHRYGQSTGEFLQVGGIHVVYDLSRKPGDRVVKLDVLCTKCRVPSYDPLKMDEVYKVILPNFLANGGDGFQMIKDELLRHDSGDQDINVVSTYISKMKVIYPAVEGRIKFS
In words: flow cytometry titration on HEK-293T cells transfected with CD73 mutant 4. The procedure: Anti-CD73 antibodies are tested for their binding to each mutant by flow cytometry. A first experiment is performed to determine antibodies that lose their binding to one or several mutants at one concentration. To confirm a loss of binding, titration of antibodies is done on antibodies for which binding seemed to be affected by the CD73 mutations (1-0.1-0.01-0.001 μg/ml).
In general terms: In flow cytometry, cells or beads pass a laser one at a time.

The target of test [2] is T3, human CD73 (ecto-5'-nucleotidase) expressed at the cell surface (human, UniProt P21589 27-549).
T3 construct: Used for huCD73-expressing recombinant cell lines, MDA-MB-231 cells (endogenous CD73), HEK-293T cells with wild type CD73, and primary T and B cells; also called huCD73; wild type CD73
T3 sequence: T2 chain with A119K, A121K, H126S, A129S, S135Y, A177E, A180K
Put plainly: flow cytometry titration on human-CD73-expressing cell line. Here is the method:
as §1, §2

Test [3] has as its target T4, recombinant human CD73-His extracellular domain protein, soluble dimer (human, UniProt P21589 27-547).
T4 construct: also called huCD73 protein; human recombinant soluble dimeric CD73
T4 sequence: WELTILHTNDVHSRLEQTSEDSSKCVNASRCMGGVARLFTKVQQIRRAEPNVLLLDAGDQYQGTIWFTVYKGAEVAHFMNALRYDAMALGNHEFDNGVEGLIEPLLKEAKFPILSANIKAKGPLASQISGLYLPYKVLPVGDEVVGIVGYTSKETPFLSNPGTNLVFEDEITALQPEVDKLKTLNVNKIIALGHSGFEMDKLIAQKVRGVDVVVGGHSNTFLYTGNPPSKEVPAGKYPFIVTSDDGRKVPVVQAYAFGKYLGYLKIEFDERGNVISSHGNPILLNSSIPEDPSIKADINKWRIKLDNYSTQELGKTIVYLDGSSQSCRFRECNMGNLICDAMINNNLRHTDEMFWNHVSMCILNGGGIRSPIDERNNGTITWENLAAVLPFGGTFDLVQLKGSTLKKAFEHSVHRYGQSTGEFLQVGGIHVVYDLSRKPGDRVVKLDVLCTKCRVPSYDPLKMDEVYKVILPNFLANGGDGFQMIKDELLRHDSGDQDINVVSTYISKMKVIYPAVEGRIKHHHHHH
In words: SPR (Biacore T100, 25 °C), antibody captured on Protein-A, soluble dimeric CD73 injected 1.23 to 300 nM, 1:1 kinetic model, bivalent affinity. Here is the method:
SPR measurements were performed on a Biacore T100 apparatus (Biacore GE Healthcare) at 25° C. In all Biacore experiments HBS-EP+(Biacore GE Healthcare) and NaOH 10 mM served as running buffer and regeneration buffer respectively. Sensorgrams were analyzed with Biacore T100 Evaluation software. Protein-A was purchase from (GE Healthcare). Human soluble dimeric CD73 proteins were cloned, produced and purified at Innate Pharma.
Protein-A proteins were immobilized covalently to carboxyl groups in the dextran layer on a Sensor Chip CMS. The chip surface was activated with EDC/NHS (N-ethyl-N′-(3-dimethylaminopropyl) carbodiimide hydrochloride and N-hydroxysuccinimide (Biacore GE Healthcare). Protein-A was diluted to 10 μg/ml in coupling buffer (10 mM acetate, pH 5.6) and injected until the appropriate immobilization level was reached (i.e. 2000 RU). Deactivation of the remaining activated groups was performed using 100 mM ethanolamine pH 8 (Biacore GE Healthcare).
Affinity study was carried out according to a standard Capture-Kinetic protocol recommended by the manufacturer (Biacore GE Healthcare kinetic wizard). Serial dilutions of human recombinant soluble dimeric CD73 proteins, ranging from 1.23 to 300 nM were sequentially injected over the captured anti-CD73 antibodies and allowed to dissociate for 10 min before regeneration. […]

B1: antibody 7H10 (antibody, human IgG1, V domains shown)
VH: DVQLQESGPGLVKPSQSLSLTCTVTGYSITSDYAWNWIRQFPGNKLEWMGYIIYSGSTSYNPSLNSRISITRDTSKNQFFLQLNSVTTEDTATYYCAREAYLYFDYWGQGTTLTVSS
VL: DIQMTQTTSSLSASLGDRVTISCRASQDINNYLNWYQQKPDGTVKLLIYYTSRLHSGVPSRFSGSGSGTDYSLTISNLEREDVATYFCQQGNTLPWTFGGGTKLEIK
As to B1, the EC50 in test [1] is 0.335 µg/mL; in test [2], 0.187 µg/mL. For the same molecule, in the test with human CD73 mutant 4, the “EC50 (read off the curve)” value was approximately 0.2 µg/mL. Moreover, the Kd in test [3] was 527 pM.
